T1: Chimeric protein #3 (mPro-mCat-hC-term-mmh) (mouse; human)
T1 chain: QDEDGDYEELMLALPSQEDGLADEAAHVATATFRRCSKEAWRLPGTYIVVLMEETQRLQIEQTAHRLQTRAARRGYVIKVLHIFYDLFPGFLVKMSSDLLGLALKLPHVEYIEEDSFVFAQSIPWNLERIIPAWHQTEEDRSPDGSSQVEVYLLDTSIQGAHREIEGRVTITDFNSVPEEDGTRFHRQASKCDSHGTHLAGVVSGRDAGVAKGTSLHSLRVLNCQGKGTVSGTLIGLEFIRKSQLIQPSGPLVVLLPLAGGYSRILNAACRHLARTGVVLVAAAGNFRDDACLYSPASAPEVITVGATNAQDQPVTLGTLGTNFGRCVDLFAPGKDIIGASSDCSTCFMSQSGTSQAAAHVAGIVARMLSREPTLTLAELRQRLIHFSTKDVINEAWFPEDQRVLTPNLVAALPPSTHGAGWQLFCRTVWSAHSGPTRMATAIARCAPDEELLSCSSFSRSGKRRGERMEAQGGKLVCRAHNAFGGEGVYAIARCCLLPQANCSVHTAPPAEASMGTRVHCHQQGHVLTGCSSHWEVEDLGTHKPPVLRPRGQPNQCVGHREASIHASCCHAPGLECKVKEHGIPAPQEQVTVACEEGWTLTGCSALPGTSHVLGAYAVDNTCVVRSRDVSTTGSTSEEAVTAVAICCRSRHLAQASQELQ

B1: H1M300N, fully human version (antibody, V domains shown)
VH: EMQLVESGGGLVQPGGSLRLSCAASGFTFSSHWMKWVRQAPGKGLEWVANINQDGSEKYYVDSVKGRFTISRDNAKNSLFLQMNSLRAEDTAVYYCARDIVLMVYDMDYYYYGMDVWGQGTTVTVSS
VL: not shown
notes: Fully human mAb made in CHO cells
B2: H1M300 (antibody, V domains shown)
VH: B1 VH
VL: not shown
notes: Hybridoma-derived chimeric antibody (human variable, mouse constant)

Tests used:
[1] = target: hPCSK9(R215E), mmh-tagged (human, UniProt Q8NBP7 31-692); test: SPR, mAb captured, 25C
[2] = target: T1, Chimeric protein #3 …; test: ELISA, mAb coated, 1.2 nM protein
Source text: After 1 hr binding at RT, the plate was washed and bound test protein detected using HRP-conjugated anti-myc polyclonal antibody (++=OD>1.0; +=OD 0.4-1.0; −=OD<0.4).

Binder	T1/2 [1] [h]	OD [2] [od]
B1	1.28	–
B2	–	< 0.4
